Source: patent publication US20230250154A1 (CYTONICS, published 2023)

T1: MMP2 (human, UniProt P08253 110-660, limits assumed)
T1 sequence (looked up): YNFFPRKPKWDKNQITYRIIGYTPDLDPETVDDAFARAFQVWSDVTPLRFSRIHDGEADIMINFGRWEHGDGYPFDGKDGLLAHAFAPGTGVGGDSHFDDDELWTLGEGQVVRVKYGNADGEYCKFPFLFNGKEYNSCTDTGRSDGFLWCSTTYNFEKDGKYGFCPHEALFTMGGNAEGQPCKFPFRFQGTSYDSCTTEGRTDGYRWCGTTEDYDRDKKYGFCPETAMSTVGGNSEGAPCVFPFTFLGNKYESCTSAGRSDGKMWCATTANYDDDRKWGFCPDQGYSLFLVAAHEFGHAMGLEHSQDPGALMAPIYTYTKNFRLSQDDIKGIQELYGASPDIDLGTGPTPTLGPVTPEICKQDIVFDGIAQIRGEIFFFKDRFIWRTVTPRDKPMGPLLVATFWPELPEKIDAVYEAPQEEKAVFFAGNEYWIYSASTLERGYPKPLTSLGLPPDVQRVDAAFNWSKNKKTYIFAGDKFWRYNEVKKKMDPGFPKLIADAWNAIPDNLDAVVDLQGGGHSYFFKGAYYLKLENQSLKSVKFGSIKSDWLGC

T2: MMP1 (human, UniProt P03956 100-469, limits assumed)
T2 sequence (looked up): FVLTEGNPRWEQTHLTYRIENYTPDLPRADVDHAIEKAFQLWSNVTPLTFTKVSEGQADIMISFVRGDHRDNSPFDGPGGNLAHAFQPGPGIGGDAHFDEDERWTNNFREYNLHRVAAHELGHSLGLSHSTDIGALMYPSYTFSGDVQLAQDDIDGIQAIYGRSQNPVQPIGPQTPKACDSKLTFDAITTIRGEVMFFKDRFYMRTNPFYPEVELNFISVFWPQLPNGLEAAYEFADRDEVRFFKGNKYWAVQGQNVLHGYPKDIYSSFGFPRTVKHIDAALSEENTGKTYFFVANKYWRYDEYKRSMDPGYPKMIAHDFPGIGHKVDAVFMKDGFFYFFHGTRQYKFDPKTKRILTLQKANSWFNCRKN

T3: ADAMTS4 (human, UniProt O75173 213-685, limits assumed)
T3 sequence (looked up): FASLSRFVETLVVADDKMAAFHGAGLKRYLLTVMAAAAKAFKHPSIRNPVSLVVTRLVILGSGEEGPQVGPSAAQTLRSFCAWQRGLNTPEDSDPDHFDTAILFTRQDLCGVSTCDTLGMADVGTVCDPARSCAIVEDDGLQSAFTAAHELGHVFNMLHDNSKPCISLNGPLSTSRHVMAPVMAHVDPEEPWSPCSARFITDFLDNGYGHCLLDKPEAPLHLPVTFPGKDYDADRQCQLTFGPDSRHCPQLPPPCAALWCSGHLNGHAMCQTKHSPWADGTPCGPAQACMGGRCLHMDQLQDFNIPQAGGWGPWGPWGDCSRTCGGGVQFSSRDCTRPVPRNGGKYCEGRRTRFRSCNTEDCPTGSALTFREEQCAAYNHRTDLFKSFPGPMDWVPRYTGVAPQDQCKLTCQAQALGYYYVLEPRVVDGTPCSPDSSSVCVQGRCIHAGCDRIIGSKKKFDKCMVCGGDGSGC

T4: ADAMTS5 (human, UniProt Q9UNA0 262-622, limits assumed)
T4 sequence (looked up): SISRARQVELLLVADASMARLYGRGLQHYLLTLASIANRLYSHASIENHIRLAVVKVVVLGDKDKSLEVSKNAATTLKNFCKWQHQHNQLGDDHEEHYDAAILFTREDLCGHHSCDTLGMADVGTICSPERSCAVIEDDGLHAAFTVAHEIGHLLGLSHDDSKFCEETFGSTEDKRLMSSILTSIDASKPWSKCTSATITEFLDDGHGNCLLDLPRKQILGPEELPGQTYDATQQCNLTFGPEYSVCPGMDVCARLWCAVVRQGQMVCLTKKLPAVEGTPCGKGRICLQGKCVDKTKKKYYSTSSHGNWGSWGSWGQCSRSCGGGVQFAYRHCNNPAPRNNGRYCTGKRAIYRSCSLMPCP


Legend:
Test in all cases: cell-based or functional assay
MMP13 = MMP13 (human, UniProt P45452 104-471, limits assumed)
MMP3 = MMP3 (human, UniProt P08254 100-477, limits assumed)
MMP2 = molecular target: T1, MMP2
MMP1 = molecular target: T2, MMP1
ADAMTS4 = molecular target: T3, ADAMTS4
MMP8 = MMP8 (human, UniProt P22894 101-467, limits assumed)
MMP9 = MMP9 (human, UniProt P14780 107-707, limits assumed)
ADAMTS5 = molecular target: T4, ADAMTS5

Chain of MMP8 (P22894 101-467 limits assumed): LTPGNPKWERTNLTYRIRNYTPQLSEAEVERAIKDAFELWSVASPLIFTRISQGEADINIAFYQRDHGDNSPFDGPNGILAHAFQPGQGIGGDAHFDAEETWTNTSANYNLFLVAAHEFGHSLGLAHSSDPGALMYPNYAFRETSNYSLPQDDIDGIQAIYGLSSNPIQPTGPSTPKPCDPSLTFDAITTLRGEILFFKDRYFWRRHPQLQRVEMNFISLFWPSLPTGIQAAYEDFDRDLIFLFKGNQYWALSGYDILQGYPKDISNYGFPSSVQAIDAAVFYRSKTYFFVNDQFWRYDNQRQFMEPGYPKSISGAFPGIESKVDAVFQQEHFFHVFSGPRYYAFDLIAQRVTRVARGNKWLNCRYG
Chain of MMP3 (P08254 100-477 limits assumed): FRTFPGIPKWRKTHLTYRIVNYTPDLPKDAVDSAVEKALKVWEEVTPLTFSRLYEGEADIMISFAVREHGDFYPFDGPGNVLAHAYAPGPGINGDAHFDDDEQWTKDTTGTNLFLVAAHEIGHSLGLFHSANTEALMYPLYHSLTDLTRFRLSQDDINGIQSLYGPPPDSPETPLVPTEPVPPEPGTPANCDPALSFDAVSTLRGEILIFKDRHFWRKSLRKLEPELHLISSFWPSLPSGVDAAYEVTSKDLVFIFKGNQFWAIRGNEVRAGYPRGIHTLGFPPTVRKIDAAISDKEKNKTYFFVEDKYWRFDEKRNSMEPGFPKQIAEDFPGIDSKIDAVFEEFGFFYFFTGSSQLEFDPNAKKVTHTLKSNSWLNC
Chain of MMP9 (P14780 107-707 limits assumed): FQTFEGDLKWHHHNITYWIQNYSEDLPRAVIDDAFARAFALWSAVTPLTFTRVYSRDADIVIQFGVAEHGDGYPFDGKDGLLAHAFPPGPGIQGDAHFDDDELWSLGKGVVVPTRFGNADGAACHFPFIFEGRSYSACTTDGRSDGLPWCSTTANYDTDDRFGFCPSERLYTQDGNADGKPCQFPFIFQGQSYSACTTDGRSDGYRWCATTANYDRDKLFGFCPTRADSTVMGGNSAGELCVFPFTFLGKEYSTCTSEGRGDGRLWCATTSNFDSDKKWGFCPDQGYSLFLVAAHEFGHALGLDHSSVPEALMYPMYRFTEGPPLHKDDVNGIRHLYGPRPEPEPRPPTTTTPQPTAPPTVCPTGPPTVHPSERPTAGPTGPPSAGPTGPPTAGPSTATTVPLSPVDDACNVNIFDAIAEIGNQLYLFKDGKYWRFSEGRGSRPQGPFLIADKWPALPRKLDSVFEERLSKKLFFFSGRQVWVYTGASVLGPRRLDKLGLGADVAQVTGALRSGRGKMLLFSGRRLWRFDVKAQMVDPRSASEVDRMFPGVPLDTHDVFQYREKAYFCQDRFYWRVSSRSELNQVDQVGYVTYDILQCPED

Protease Inhibition (% of WT) (MMP13) | Protease Inhibition (% of WT) (MMP3) | Protease Inhibition (% of WT) (MMP2) | Protease Inhibition (% of WT) (MMP1) | Protease Inhibition (% of WT) (ADAMTS4) | Protease Inhibition (% of WT) (MMP8) | Protease Inhibition (% of WT) (MMP9) | Protease Inhibition (% of WT) (ADAMTS5) | Binder
150 % of WT | 40 % of WT | 100 % of WT | 150 % of WT | 160 % of WT | 40 % of WT | 70 % of WT | 170 % of WT | Variant A2M, bait region SEQ ID NO 87 (other) SVSGKPQYMVLVPSLLHTETTEKGCVLLSYLNETVTVSASLESVRGNRSLFTDLEAENDVLHCVAFAVPKSSSNEEVMFLTVQVKGPTQEFKKRTTVMVKNEDSLVFVQTDKSIYKPGQTVKFRVVSMDENFHPLNELIPLVYIQDPKGNRIAQWQSFQLEGGLKQFSFPLSSEPFQGSYKVVVQKKSGGRTEHPFTVEEFVLPKFEVQVTVPKIITILEEEMNVSVCGLYTYGKPVPGHVTVSICRKYSDASDCHGEDSQAFCEKFSGQLNSHGCFYQQVKTKVFQLKRKEYEMKLHTEAQIQEEGTVVELTGRQSSEITRTITKLSFVKVDSHFRQGIPFFGQVRLVDGKGVPIPNKVIFIRGNEANYYSNATTDEHGLVQFSINTTNVMGTSLTVRVNYKDRSPCYGYQWVSEEHEEAHHTAYLVFSPSKSFVHLEPMSHELPCGHTQTVQAHYILNGGTLLGLKKLSFYYLIMAKGGIVRTGTHGLLVKQEDMKGHFSISIPVKSDIAPVARLLIYAVLPTGDVIGDSAKYDVENCLANKVDLSFSPSQSLPASHAHLRVTAAPQSVCALRAVDQSVLLMKPDAELSASSVYNLLPEKDLTGFPGPLNDQDDEDCINRHNVYINGITYTPVSSTNEKDMYSFLEDMGLKAFTNSKIRKPKMCPQLEQYEMHGPEGLRVGKEEEGLGSSELEGRGSTAQEAGEGKLRKYFPETWIWDLVVVNSAGVAEVGVTVPDTITEWKAGAFCLSEDAGLGISSTASLRAFQPFFVELTMPYSVIRGEAFTLKATVLNYLPKCIRVSVQLEASPAFLAVPVEKEQAPHCICANGRQTVSWAVTPKSLGNVNFTVSAEALESQELCGTEVPSVPEHGRKDTVIKPLLVEPEGLEKETTFNSLLCPSGGEVSEELSLKLPPNVVEESARASVSVLGDILGSAMQNTQNLLQMPYGCGEQNMVLFAPNIYVLDYLNETQQLTPEIKSKAIGYLNTGYQRQLNYKHYDGSYSTFGERYGRNQGNTWLTAFVLKTFAQARAYIFIDEAHITQALIWLSQRQKDNGCFRSSGSLLNNAIKGGVEDEVTLSAYITIALLEIPLTVTHPVVRNALFCLESAWKTAQEGDHGSHVYTKALLAYAFALAGNQDKRKEVLKSLNEEAVKKDNSVHWERPQKPKAPVGHFYEPQAPSAEVEMTSYVLLAYLTAQPAPTSEDLTSATNIVKWITKQQNAQGGFSSTQDTVVALHALSKYGAATFTRTGKAAQVTIQSSGTFSSKFQVDNNNRLLLQQVSLPELPGEYSMKVTGEGCVYLQTSLKYNILPEKEEFPFALGVQTLPQTCDEPKAHTSFQISLSVSYTGSRSASNMAIVDVKMVSGFIPLKPTVKMLERSNHVSRTEVSSNHVLIYLDKVSNQTLSLFFTVLQDVPVRDLKPAIVKVYDYYETDEFAIAEYNAPCSKDLGNADYKDDDDKGASHHHHHH
90 % of WT | 80 % of WT | 110 % of WT | 170 % of WT | 210 % of WT | 160 % of WT | 50 % of WT | 250 % of WT | Variant A2M, bait region SEQ ID NO 92 (other) SVSGKPQYMVLVPSLLHTETTEKGCVLLSYLNETVTVSASLESVRGNRSLFTDLEAENDVLHCVAFAVPKSSSNEEVMFLTVQVKGPTQEFKKRTTVMVKNEDSLVFVQTDKSIYKPGQTVKFRVVSMDENFHPLNELIPLVYIQDPKGNRIAQWQSFQLEGGLKQFSFPLSSEPFQGSYKVVVQKKSGGRTEHPFTVEEFVLPKFEVQVTVPKIITILEEEMNVSVCGLYTYGKPVPGHVTVSICRKYSDASDCHGEDSQAFCEKFSGQLNSHGCFYQQVKTKVFQLKRKEYEMKLHTEAQIQEEGTVVELTGRQSSEITRTITKLSFVKVDSHFRQGIPFFGQVRLVDGKGVPIPNKVIFIRGNEANYYSNATTDEHGLVQFSINTTNVMGTSLTVRVNYKDRSPCYGYQWVSEEHEEAHHTAYLVFSPSKSFVHLEPMSHELPCGHTQTVQAHYILNGGTLLGLKKLSFYYLIMAKGGIVRTGTHGLLVKQEDMKGHFSISIPVKSDIAPVARLLIYAVLPTGDVIGDSAKYDVENCLANKVDLSFSPSQSLPASHAHLRVTAAPQSVCALRAVDQSVLLMKPDAELSASSVYNLLPEKDLTGFPGPLNDQDDEDCINRHNVYINGITYTPVSSTNEKDMYSFLEDMGLKAFTNSKIRKPKMCPQLEQYEMHGPEGLRVGTAQEAGEGFYESDVMGRGHARLVHVEEPHTKLLRKYFPETWIWDLVVVNSAGVAEVGVTVPDTITEWKAGAFCLSEDAGLGISSTASLRAFQPFFVELTMPYSVIRGEAFTLKATVLNYLPKCIRVSVQLEASPAFLAVPVEKEQAPHCICANGRQTVSWAVTPKSLGNVNFTVSAEALESQELCGTEVPSVPEHGRKDTVIKPLLVEPEGLEKETTFNSLLCPSGGEVSEELSLKLPPNVVEESARASVSVLGDILGSAMQNTQNLLQMPYGCGEQNMVLFAPNIYVLDYLNETQQLTPEIKSKAIGYLNTGYQRQLNYKHYDGSYSTFGERYGRNQGNTWLTAFVLKTFAQARAYIFIDEAHITQALIWLSQRQKDNGCFRSSGSLLNNAIKGGVEDEVTLSAYITIALLEIPLTVTHPVVRNALFCLESAWKTAQEGDHGSHVYTKALLAYAFALAGNQDKRKEVLKSLNEEAVKKDNSVHWERPQKPKAPVGHFYEPQAPSAEVEMTSYVLLAYLTAQPAPTSEDLTSATNIVKWITKQQNAQGGFSSTQDTVVALHALSKYGAATFTRTGKAAQVTIQSSGTFSSKFQVDNNNRLLLQQVSLPELPGEYSMKVTGEGCVYLQTSLKYNILPEKEEFPFALGVQTLPQTCDEPKAHTSFQISLSVSYTGSRSASNMAIVDVKMVSGFIPLKPTVKMLERSNHVSRTEVSSNHVLIYLDKVSNQTLSLFFTVLQDVPVRDLKPAIVKVYDYYETDEFAIAEYNAPCSKDLGNADYKDDDDKGASHHHHHH
